Where a chain is given by its changes, count along the chain named.
B1: L7-3E03-D1: ethametsulfuron repressor (EsR), SEQ ID NO:411 (protein)
chain: MARLDKSKVINSALELLNEVGIEGLTTRKLAQKLGVEQPTLYWHVKNKRALLDAMAIEMLDRHATHYCPLEGESWQDFLRNNAKSMRCALLSHRDGAKVCLGTGFTEQQYETAENSLAFLCQQGFSLEHAMYAMQAAGIYTLGCVLLDQELQVAKEERETPTTDSMPPLVRQALELKDHQGAEPAFLFGLELIICGLEKQLKCESGS
modifications: Sulfonylurea responsive repressor L7-3E3-D1
B2: L7-1F08-A11: ethametsulfuron repressor protein, SEQ ID NO:409 (protein)
chain: B1 chain with H129N, M131L, A137V
modifications: Sulfonylurea responsive repressor L7-1F8-A11
B3: L7-1G06-B2: ethametsulfuron repressor (EsR), SEQ ID NO:410 (protein)
chain: B1 chain with L117M, H129N, M131L, A137V
modifications: Sulfonylurea responsive repressor L7-1G6-B2
B4: L7-1C03-A5: ethametsulfuron repressor (EsR), SEQ ID NO:408 (protein)
chain: B1 chain with Y67V, S85I, M131L, Y140F, K177N
modifications: Sulfonylurea responsive repressor L7-1C3-A5
B5: dMMV:tetOp: double enhancer MMV promoter with three tet operators, SEQ ID NO:858 (nucleic acid)
DNA: AAACCAATTCGTCAACTTCGTCCACAGACATCAACATCTTATCGTCCTTTGAAGATAAGATAATAATGTTGAAGATAAGAGTGGGAGCCCCCACTAAAACATTGCTTTGTCAAAAGCTAAAAAAGATGATGCCCGACAGCCACTTGTGTGAAGCATGAGAAGCCGGTCCCTCCACTAAGAAAATTAGTGAAGCATCTTCCAGTGGTCCCTCCACTCACAGCTCAATCAGTGAGCAACAGGACGAAGGAAATGACGTAAGCCATGACGTCTAATCCCAACTTCGTCCACAGACATCAACATCTTATCGTCCTTTGAAGATAAGATAATAATGTTGAAGATAAGAGTGGGAGCCACCACTAAAACATTGCTTTGTCAAAAGCTAAAAAAGATGATGCCCGACAGCCACTTGTGTGAAGCATGAGAAGCCGGTCCCTCCACTAAGAAAATTAGTGAAGCATCTTCCAGTGGTCCCTCCACTCACAGCTCAATCAGTGAGCAACAGGACGAAGGAAATGACGTAAGCCATGACGTCTAATCCCACACTCTATCAGTGATAGAGTTTATATAAGACTCTATCAGTGATAGAGTGAACTCTATCAGTGATAGAGTGAGATCAATCGAAATCAAAATCGGAATCGAAATCAAAATCGGAATCGAAATCTCTCATCTAAGAGCTCAAAAAAAAAAAAAACC
modifications: dMMV promoter engineered with tet operators
B6: 35S:tetOp: 35SCaMV promoter with tet operators, SEQ ID NO:862, control (nucleic acid)
DNA: GAAAATCTTCGTCAACATGGTGGAGCACGACACGCTTGTCTACTCCAAAAATATCAAAGATACAGTCTCAGAAGACCAAAGGGCAATTGAGACTTTTCAACAAAGGGTAATATCCGGAAACCTCCTCGGATTCCATTGCCCAGCTATCTGTCACTTTATTGTGAAGATAGTGGAAAAGGAAGGTGGCTCCTACAAATGCCATCATTGCGATAAAGGAAAGGCCATCGTTGAAGATGCCTCTGCCGACAGTGGTCCCAAAGATGGACCCCCACCCACGAGGAGCATCGTGGAAAAAGAAGACGTTCCAACCACGTCTTCAAAGCAAGTGGATTGATGTGATATCTCCACTGACGTAAGGGATGACGCACAATCCCACTAGACTCTATCAGTGATAGAGTGTATATAAGACTCTATCAGTGATAGAGTGAACTCTATCAGTGATAGAGTTGTACTTATTTTTACAACAATTACCAACAACAACAAACAACAAACAACATTACAATTACTATTTACAATTACAGTCGACGGATCAAGTGCAAAGGTCCGCCTTGTTTCTCCTCTGTCTCTTGATCTGACTAATCTTGGTTTATGATTCGTTGAGTAATTTTGGGGAAAGCTTCGTCCACAGTTTTTTTTTCGATGAACAGTGCCGCAGTGGCGCTGATCTTGTATGCTATCCTGCAATCGTGGTGAACTTATTTCTTTTATATCCTTCACTCCCATGAAAAGGCTAGTAATCTTTCTCGATGTAACATCGTCCAGCACTGCTATTACCGTGTGGTCCATCCGACAGTCTGGCTGAACACATCATACGATATTGAGCAAAGATCGATCTATCTTCCCTGTTCTTTAATGAAAGACGTCATTTTCATCAGTATGATCTAAGAATGTTGCAACTTGCAAGGAGGCGTTTCTTTCTTTGAATTTAACTAACTCGTTGAGTGGCCCTGTTTCTCGGACGTAAGGCCTTTGCTGCTCCACACATGTCCATTCGAATTTTACCGTGTTTAGCAAGGGCGAAAAGTTTGCATCTTGATGATTTAGCTTGACTATGCGATTGCTTTCCTGGACCCGTGCAGCTGCGGACGGATCC
modifications: 35SCaMV promoter engineered with tet operators
B7: MMV:tetOp: Mirabilis mosaic virus promoter with three tet operators, SEQ ID NO:857 (nucleic acid)
DNA: TTCGTCCACAGACATCAACATCTTATCGTCCTTTGAAGATAAGATAATAATGTTGAAGATAAGAGTGGGAGCCACCACTAAAACATTGCTTTGTCAAAAGCTAAAAAAGATGATGCCCGACAGCCACTTGTGTGAAGCATGAGAAGCCGGTCCCTCCACTAAGAAAATTAGTGAAGCATCTTCCAGTGGTCCCTCCACTCACAGCTCAATCAGTGAGCAACAGGACGAAGGAAATGACGTAAGCCATGACGTCTAATCCCACACTCTATCAGTGATAGAGTTTATATAAGACTCTATCAGTGATAGAGTGAACTCTATCAGTGATAGAGTGAGATCAATCGAAATCAAAATCGGAATCGAAATCAAAATCGGAATCGAAATCTCTCATCTAAGAGCTCAAAAAAAAAAAAAACC
modifications: MMV promoter engineered with tet operators

Assays:
operator = assay: Biacore SPR operator binding characterization of repressors
Excerpt: Select SU repressors were further characterized for operator and ligand binding, affinity and dissociation kinetics using Biacore™ SPR technology (Biacore, GE Healthcare, USA). The technology is based on surface plasmon resonance (SPR), an optical phenomenon that enables detection of unlabeled interactants in real time. The SPR-based biosensors can be used in determination of active concentration, screening and characterization in terms of both affinity and kinetics.
The kinetics of an interaction, i.e., the rates of complex formation (ka) and dissociation (kd), can be determined from the information in a sensorgram. If binding occurs as sample passes over a prepared sensor surface, the response in the sensorgram increases. If equilibrium is reached, a constant signal is seen. Replacing the sample with buffer causes the bound molecules to dissociate and the response decreases. Biacore evaluation software generates the values of ka and kd by fitting the data to interaction models.
The affinity of an interaction is determined from the level of binding at equilibrium (seen as a constant signal) as a function of sample concentration. Affinity can also be determined from kinetic measurements. For a simple 1:1 interaction, the equilibrium constant KD is the ratio of the kinetic rate constants, kd/ka.
A. Operator Binding Characterization of Repressors

[1] = system: 35S::tetO-Renilla Luciferase reporter; assay: Nicotiana benthamiana leaf infiltration assay, repression and derepression; type: in vivo; settings: inducer concentration as low as 0.02 ppm Es
RLuc reporter = assay: Agrobacterium transient luciferase assay of promoters with and without tet operators; type: in vivo, Nicotiana benthamiana; settings: relative light units
Method: The activity of unmodified and designed MMV, dMMV, and EF1A2 promoters were evaluated using the characterized 35SCaMV (SEQ ID NO:861) and 35SCaMV::tetOP (SEQ ID NO:862) promoters as controls. Promoter activity was analyzed via Agrobacterium-mediated transient expression analysis in Nicotiana benthamiana leaves. N. benthamiana leaves were infected with luciferase reporter constructs controlled by either the modified or unmodified promoters. Test constructs were identical except for the promoter sequence (Pro) being tested. Test constructs comprised the following operably linked components: • RB-Pro-RLuc-UBQ3-EF1A-NptII-EF1A3′-LB
Relative light units were quantified for modified and unmodified promoters (FIG. 3), and promoter activity for the modified version determined as the percent of unmodified promoter activity (ProOp/Pro). […] In this assay, 35S:tetOp had about 25% of the activity as 35S promoter, EF1A2:tetOp had about 30% of the activity of EF1A2 promoter, MMV:tetOp had about 60% of the activity of MMV promoter, and dMMV:tetOp had about 50% of the activity of dMMV promoter.

Row | Molecule | ka (operator) [M⁻¹ s⁻¹] | induction of repressor [1] | promoter activity as percent of unmodified promoter activity (ProOp/Pro) (RLuc reporter)
1 | B1 | 55000 | significant but incomplete induction | 
2 | B2 | 71000 |  | 
3 | B3 | 46000 |  | 
4 | B4 | 47000 |  | 
5 | B5 |  |  | about 50%
6 | B6 |  |  | about 25%
7 | B7 |  |  | about 60%

— patent US20110287936A1, “GENE SWITCH COMPOSITIONS AND METHODS OF USE” (priority 2010, published 2011)
